Laboratory results: publication PMC13638050

Molecular target: H1 stem (recombinant HA stem construct #4900 designed based on H1N1 A/Brisbane/59/2007 HA) (influenza A virus H1N1 A/Brisbane/59/2007)
Test: BLI

somatic CR9114 Fab
Kd: < 100 pM
